Measured values taken from patent US10947272B2, “BACE1 inhibitor peptides” (HOFFMANN-LA ROCHE INC., priority 2015, dated 2021).
Like-named read-outs stand apart in the source and are kept apart here. Numbered stars: 1 amine (or outer) side, 2 acyl side, 3 side chain; on linkers, the order of the positions; unused ones are H or OH. Square brackets hold non-standard residues; d marks the D form. Ends that are not written are not given here. Peptide text beside a SMILES is read from it. MetSta(3S,4S) = CSCC[C@H](N[*:1])[C@@H](O)CC(=O)[*:2]; Sta = CC(C)C[C@H](N)[C@@H](O)CC(=O)O

Key:
[1] = biological target: BACE1 (Asp2, β-secretase, Memapsin-2) in HEK293 cells stably expressing human APP695 (UniProt P56817); assay: cell-based or functional assay
BACE1 = biological target: T1, BACE1 (Homo sapiens, UniProt P56817); assay: Cellular Aβ-lowering assay (Aβ40 ELISA of culture supernatant); assay type: cell-based; settings: HEK293 cells stably transfected with human APP wt (APP695), 18-20 hrs incubation, Aβ40 in supernatant
T1 construct: Human HEK293 cells which are stably transfected with a vector expressing a cDNA of the human APP wt gene (APP695); endogenous in cells; host or cells: HEK293 (human), stably transfected with human APP695 wt cDNA
Procedure: The compounds were investigated in accordance with the test given hereinafter. Cellular Aβ-Lowering Assay: Human HEK293 cells which are stably transfected with a vector expressing a cDNA of the human APP wt gene (APP695) were used to assess the potency of the compounds in a cellular assay. The cells were seeded in 96-well microtiter plates in cell culture medium (Iscove, plus 10% (v/v) fetal bovine serum, glutamine, penicillin/streptomycin) to about 80% confluence and the compounds were added at a 10× concentration in 1/10 volume of medium without FCS containing 8% DMSO (final concentration of DMSO was kept at 0.8% v/v). After 18-20 hrs incubation at 37° C. and 5% CO2 in a humidified incubator the culture supernatant was harvested for the determination of Aβ40 concentrations. 96 well ELISA plates (e.g., Nunc MaxiSorb) were coated with monoclonal antibody which specifically recognize the C-terminal end of Aβ40 (Brockhaus et al., NeuroReport 9, 1481-1486; 1998). After blocking of non-specific binding sites with e.g. 1% BSA and washing, the culture supernatants were added in suitable dilutions together with a horseradish peroxidase-coupled Aβ detection antibody (e.g., antibody 4G8, Senetek, Maryland Heights, Mo.) and incubated for 5 to 7 hrs. Subsequently the wells of the microtiter plate were washed extensively with Tris-buffered saline containing 0.05% Tween 20 and the assay was developed with tetramethylbenzidine/H2O2 in citric acid buffer. After stopping the reaction with one volume 1 N H2SO4 the reaction was measured in an ELISA reader at 450 nm wavelength. The concentrations of Aβ in the culture supernatants were calculated from a standard curve obtained with known amounts of pure Aβ peptide.

[2] = biological target: T2, BACE1 (Asp2, β-secretase, Memapsin-2) in HEK293 cells stably expressing human APP695 (UniProt P56817 46-501, limits assumed); assay: cell-based or functional assay
[3] = biological target: T2, BACE1 (Asp2, β-secretase, Memapsin-2) …; assay: cell-based or functional assay; remark: listed apart in the source

T2 sequence (P56817 46-501 limits assumed): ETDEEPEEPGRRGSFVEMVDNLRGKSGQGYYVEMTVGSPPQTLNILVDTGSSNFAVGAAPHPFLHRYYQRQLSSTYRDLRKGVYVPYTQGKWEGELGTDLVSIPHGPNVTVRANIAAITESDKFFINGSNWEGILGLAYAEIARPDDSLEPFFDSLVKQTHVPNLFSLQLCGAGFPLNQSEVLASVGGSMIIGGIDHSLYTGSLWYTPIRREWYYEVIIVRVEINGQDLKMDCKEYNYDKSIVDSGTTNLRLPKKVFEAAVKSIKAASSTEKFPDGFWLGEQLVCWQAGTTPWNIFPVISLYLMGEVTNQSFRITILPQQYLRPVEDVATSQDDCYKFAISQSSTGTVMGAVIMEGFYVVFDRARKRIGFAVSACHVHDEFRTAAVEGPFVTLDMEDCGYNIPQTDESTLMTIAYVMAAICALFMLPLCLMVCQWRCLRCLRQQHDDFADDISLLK
T1 sequence (P56817 46-501): as the sequence (P56817 46-501 limits assumed) above
Chain of BACE1 (Asp2, β-secretase, Memapsin-2) in HEK293 cells stably expressing human APP695 (UniProt P56817) (P56817 46-501 limits assumed): as above

| Molecule | IC 50, cellular Aβ-lowering assay (Aβ40 in supernatant of HEK293 cells expressing human APP695) [2] [µM] | also measured |
| --- | --- | --- |
| H-YPY[dK]IPLG[dK]GEVN[Sta]VAE[dP]-NH2 |  | IC 50, cellular Aβ-lowering assay (Aβ40 in supernatant of HEK293 cells expressing human APP695) [1]: 34.8 µM |
| CC[C@H](C)[C@H](NC(=O)[C@@H](CCCCN)NC(=O)[C@H](Cc1ccc(O)cc1)NC(=O)[C@@H]1CCCN1C(=O)[C@@H](N)Cc1ccc(O)cc1)C(=O)N1CCC[C@H]1C(=O)N[C@@H](CC(C)C)C(=O)NCC(=O)N[C@H](CCCCN)C(=O)NCC(=O)N[C@@H](CCC(=O)O)C(=O)N[C@H](C(=O)N[C@@H](CC(N)=O)C(=O)N[C@@H](CC(C)C)[C@@H](O)CC(=O)N[C@H](C(=O)N[C@@H](C)C(=O)N[C@@H](CCC(=O)O)C(=O)N1CCC[C@@H]1C(N)=O)C(C)C)C(C)C [Example 33, H-Tyr-Pro-Tyr-DLys-Ile-Pro-Leu-Gly-DLys-Gly-Glu-Val-Asn-Sta-Val-Ala-Glu-DPro-NH2] (H-YPY[dK]IPLG[dK]GEVN[Sta]VAE[dP]-NH2) |  | IC50 (BACE1; IC 50, dual-site BACE1 inhibitors): 34.8 µM |
| CC[C@H](C)[C@H](NC(=O)[C@H](Cc1ccccc1)NC(=O)[C@H](CCCNC(=N)N)NC(=O)[C@H](C)NC(=O)CN)C(=O)N1CCC[C@H]1C(=O)N[C@@H](C)C(=O)NCC(=O)N[C@H](CCCCN)C(=O)NCC(=O)N[C@@H](CCC(=O)O)C(=O)N[C@H](C(=O)N[C@@H](CC(N)=O)C(=O)N[C@@H](CC(C)C)[C@@H](O)CC(=O)N[C@H](C(=O)N[C@@H](C)C(=O)N[C@@H](CCC(=O)O)C(=O)N1CCC[C@@H]1C(N)=O)C(C)C)C(C)C [Example 16, Gly-Ala-Arg-Phe-Ile-Pro-Ala-Gly-DLys-Gly-Glu-Val-Asn-Sta-Val-Ala-Glu-DPro-NH2 × 3TFA] (H-GARFIPAG[dK]GEVN[Sta]VAE[dP]-NH2; N-terminus assumed) |  | IC50 (BACE1; dual-site BACE1 inhibitors, read-out: IC 50): 0.42 µM |
| Ac-GDYPKFIPAS-NH2 [Ac-Gly-Asp-Tyr-Pro-Lys-Phe-Ile-Pro-Ala-Ser-NH2] | > 40 |  |
| Ac-STGARFIPAN-NH2 [Ac-Ser-Thr-Gly-Ala-Arg-Phe-Ile-Pro-Ala-Asn-NH2] | > 40 |  |
| Ac-QQYPYFKPAN-NH2 [Ac-Gln-Gln-Tyr-Pro-Tyr-Phe-Lys-Pro-Ala-Asn-NH2] | > 40 |  |
| Ac-GSYPKFIDAN-NH2 [Ac-Gly-Ser-Tyr-Pro-Lys-Phe-Ile-Asp-Ala-Asn-NH2] | > 40 |  |
| EVN[MetSta(3S,4S)]VAE[dF]-NH2 (also: TFA salt) [Glu-Val-Asn-MetSta-Val-Ala-Glu-DPhe-NH2 × TFA] |  | IC 50, cellular Aβ-lowering assay (Aβ40 in supernatant of HEK293 cells expressing human APP695) [3]: > 40 µM |
| EVN[Sta]VAEF-NH2 (also: TFA salt) [Glu-Val-Asn-Sta-Val-Ala-Glu-Phe-NH2 × TFA] |  | IC 50, cellular Aβ-lowering assay (Aβ40 in supernatant of HEK293 cells expressing human APP695) [3]: > 40 µM |
| Ac-YPTFKPANGS-NH2 (not fully specified; printed as Ac-YPTFKPANGS-NH2) [Ac-YPTFKPANGS-NH2] | > 40 |  |
| Ac-LTTYPYFKPA-NH2 [Ac-Leu-Thr-Thr-Tyr-Pro-Tyr-Phe-Lys-Pro-Ala-NH2] | 14.4 |  |
| Ac-GDYPKFISAN-NH2 [Ac-Gly-Asp-Tyr-Pro-Lys-Phe-Ile-Ser-Ala-Asn-NH2] | > 40 |  |
| EVN[Sta]VAE[dP]-NH2 (also: TFA salt) [Glu-Val-Asn-Sta-Val-Ala-Glu-DPro-NH2 × TFA] |  | IC 50, cellular Aβ-lowering assay (Aβ40 in supernatant of HEK293 cells expressing human APP695) [3]: > 40 µM |
